Some results are limits rather than exact numbers.

This test addresses human CD81 (on Huh-7 cells and human primary hepatocytes) (human) (UniProt P60033). As to the kind of experiment: cell-based or functional assay.

Chain of human CD81 (on Huh-7 cells and human primary hepatocytes) (human) (P60033 whole entry): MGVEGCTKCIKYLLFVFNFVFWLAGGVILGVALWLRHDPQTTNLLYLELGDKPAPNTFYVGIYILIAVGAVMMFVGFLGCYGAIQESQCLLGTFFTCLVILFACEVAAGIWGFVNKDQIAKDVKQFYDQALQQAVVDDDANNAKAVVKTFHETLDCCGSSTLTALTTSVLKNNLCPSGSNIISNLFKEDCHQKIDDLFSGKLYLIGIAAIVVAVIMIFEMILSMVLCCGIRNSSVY

“JS-81 anti-CD81 monoclonal antibody (Pharmingen)” came in with an inhibition of infection by HCVpp of genotypes 1a and 1b, target cells pre-incubated with 30 µg/ml antibody greater than 90%.
